Assay: soluble on expression in E. coli; label from the status in PepcDB or PDB records
In the case of “HMAEIYLAGGCFWGLEEYFSRISGVLETSVGYANGQVETTNYQLLKETDHAETVQVIYDEKEVSLREILLYYFRVIDPLSINQQGNDRGRQYRTGIYYQDEADLPAIYTVVQEQERMLGRKIAVEVEQLRHYILAEDYHQDYLRKNPSGYCHIDVTDADKPLIDAANYEKPSQEVLKASLSEESYRVTQEAATEAPFTNAYDQTFEEGIYVDITTGEPLFFAKDKFASGCGWPSFSRPLSKELIHYYKDLSHGMERIEVRSRSGSAHLGHVFTDGPRELGGLRYCINSASLRFVAKDEMEKAGYGYLLPYLNK”, the “soluble on expression in E. coli” value is reported as “soluble”.
For “MLQDADRTRILAISPHLDDAVLSVGASLAQAEQDGGKVTVFTVFAGSAAPPYSPAAERFHARWGLSPTEDAPLRRRNEDIAALDQLGAGHRHGRFLDAIYRRSPDGQWLLHHNEGSMVRQQSPANNHDLVAAIREDIESMIAECDPTLVLTCVAIGKHPDHKATRDATLLAARERGIPLRLWQDLPYAAYSQDLAELPDGLRLGSPELSFVDEEARTRKFQAMKHYATQLSVLDGPNKNLFAKLDEHARNAAPDGGYNETTWPVIRYAAE”, the “soluble on expression in E. coli” value was “soluble”.
In the case of “SGDKPPGFRGSRDWIGCVEASLCLAHFGGPQGRLCHVPRGVGLHGEVERLYSHFAGGGGPVMVGGDADARSKALLGVCVGSGTEAYVLVLDPHYWGTPKSPSELQAAGWVGWQEVSAAFDPNSFYNLCLTSLSSQQQQRTLD”, the “soluble on expression in E. coli” value is reported as “soluble”.
In the case of “MTEKEKMLAEKWYDANFDQYLINERARAKDICFELNHTRPSATNKRKELIDQLFQTTTDNVSISIPFDTDYGWNVKLGKNVYVNTNCYFMDGGQITIGDNVFIGPNCGFYTATHPLNFHHRNEGFEKAGPIHIGSNTWFGGHVAVLPGVTIGEGSVIGAGSVVTKDIPPHSLAVGNPCKVVRKIDNDLPSETLNDETIK”, the “soluble on expression in E. coli” value is reported as “soluble”.
With “MSEKRLTMKETIRRKALSLGFCAVGFAAADTLNEAMKEYRAMIDEGRHGEMGYLETGLEARANPELLLPGVKSVLSAALPWPAPAKPGAISGYAVIPDYHRVVGELLKELLDFIRSICDHPINGQICVDSSPVLEKEWAEAAGIGRTGKNTLLIVPGYGSRVFLGELLLDLELEPDTPLDWNPCGDCTACLDACPTGALNTPGKLDARRCISYLTIELKRDFTDEEAAMTNGWFYGCDHCLDACPHNANIEATGYPGFEQKKELVNLTPEKALELTHSQFRKRFAGTPALRLGLRRLKRNARAAVANKSQSKS” the “soluble on expression in E. coli” value was “not soluble”.
In the case of “MLETDLEARMQILRESGFQESQGDDDTFAQRAEWFYQGRPLLLSLCLDLYNGYVTLLGRSSHQTRLKPTTSLPNQLLQDDDDCISDIDSVSEVSSEVESTLSFQQMKDPTAVSEKVDELVSQLVTASLDKEILKHELLHKDQQFHEASKTIELLKKFVMLLEMEKEVAVEENANLGYKLTSLLEENRELATEALFMKNEAVGLARCVLKMRDDHFHKVCILQNRIYSLQASRNSEPVSDKVSYGCFGLDKHKTKKKKENKTEEKKPGFKWLKKLNTINLFTKCSLNPSAAAPSCCTFDLPY”, the “soluble on expression in E. coli” value is reported as “not soluble”.
With “MLELKSDDREYTANMLLLNDTDKTVKHKTVGEFYQDLIKQYANESKCGNRLIYKSSYNSLYTFTKGNLDIPFSAINPSWLCNYEKWLRSKGNKETTMSLMLRTLRSTYNKAIENKYARKSDYPFNEYKIGKFDVSTEKRAIAKADIMKLTADISSVGKRQYVQLSKDIFMFSYLCGGINFTDIANLTSKNIVDGKRLHYIRQKTGKLIKLGLSDAALRIIERYAPDSHGYLFPILNVEVHKTALQKQNRIHKILSKVNSNLKLIATQSGLDINLTTYVARHSFATVLKKSGVNIALISEALGHSDLATTQIYLDSFDNEQIDDAMKNLL” the “soluble on expression in E. coli” value was “not soluble”.
With “MVRTYSPAFREAAVRMMISHREEYKCSRWAAAVAISEKIGASPNSIYAWFKKSTFETIESDDFDLAYYKERIERLESEIQRLQKTIKFLRTTIIILSNSLHFG” the “soluble on expression in E. coli” value was “not soluble”.
For “MKRIRLWGLMAGLLLLLVGCGRAETTGVTKPVTTQGHRYIPTLFFHGWGSSYHAETHMADAIVKAGKTQTIVRAMVAKNGTVTLKGHFRSGDYRPIVEVNFANNRSSDYPTVGRWAKNVVVALQRTYGITSFNMVGHSMGNMAITYYLLANAQNKRLPQLRQQVAIAGHFNGILGMDDSPNQMTLNAAGRPNKLRPAYRQLLGLRRVYPRQQVRVLNIYGDKGDGTHSDGSVSNASSRSLRYLVAARARSYREVKLTGKHAQHSQLHENAQVDRLLIDFLWPTH”, the “soluble on expression in E. coli” value was “not soluble”.
With “MARMKFLCDTKRCIECNGCVTACKNENDDALEWGIQRRRVVTLNDGEPGENSISVACMHCTDAPCMAVCPADCFVHTEDGIVLHNKDLCIGCGYCLFACPFGAPQFPKQAAFGERGKMDKCTFCAGGPETEPGSEEERRKYGANRIAEGKLPMCASLCSTKALLAGDAEKISDIFRQRVVERGAKGAGWTNGEDLAYDATRS” the “soluble on expression in E. coli” value was “not soluble”.
For “MTEQQKFKVLADQIKISNQLDAEILNSGELTRIDVSNKNRTWEFHITLPQFLAHEDYLLFINAIEQEFKDIANVTCRFTVTNGTNQDEHAIKYFGHCIDQTALSPKVKGQLKQKKLIMSGKVLKVMVSNDIERNHFDKACNGSLIKAFRNCGFDI”, the “soluble on expression in E. coli” value was “not soluble”.
In the case of “MGSDKIHHHHHHMDNPVEEHSPTAQTPVLNLDNVPVGVPLEWPIVDADGTLLFATGTILATTDERNFLFGHFHPQRGDLLDAATQPAPESDAHADPGSPLTLKDMHLEIGALIGVRPQVGSGAPMHPCRIIGFAPNHALFVTPPMHDGRMLPMGLGENIEIVAIASHAVFRFVCTIEAICRSPFDYVVLSKPGVIRRLRERKSIRVRTHLAVRFGIGQSGESYEGLGLAKGVSALGMSLAASWTLGAVGDRLRLAFRLKSKDLDTEIETTAVIRNVQQGSGPGTPSTHGLELDQLDATQQMAMKVFVFDRQDDVVYWSSGLK”, the “soluble on expression in E. coli” value is reported as “not soluble”.
With “MGSDKIHHHHHHVPMGKLIASLVDIVKKNKFVDDTQKALFDNFENTKRVNVYIDDLDRGWEGRKEDIRRISALLNAVRDISNEMDNVHFMISLRSDVYYLVRTSDESTDKISGSVIWYTWDRHQILALLAKRVETFFGRDISENSLMGMHQSKIAQYLDPIMTQHFEGKGKWENAPIYRILMSLIRNRPRDLVMICTLAARNARKKGRSKILTEDLQSIFEDYSLERIQDIENEFKSELPEIRRLLFALKPSAKKSSKFSDLYVYTTDQVEAKIQSASANAPFYFSNNNKQATSEELHYFLYKINFLTARRKNKDDVLVRKTFEENKYLTGRFVDFGFGWEVHPAYRWALEPDDSESIYARLDLLDFE” the “soluble on expression in E. coli” value was “not soluble”.
In the case of “NATERSPVIIGLAGFTGSGRSFLNRTYTSMDFLTALKEIDEKRSDLGFIIVLPDVMTGLYGNQYLNSSAVGNYEDFIVKDIVGIIRERFGERPMGVFGKSSGGFGSYTLAVRHPDIFSGFIDVSGDSAFEYVYIPDFPDTYKEIRRQGLYRWFDEIHRKLSLQNQDIKVANIVAMSAFYSPDPGSPMGISLPFDIETGELIESVWNRWLKFDPARNIADYMDVLRDMAIFLQVGAKDEFHTDIGIGTMHRKLEQENVVHFYEVYDSGHFGIDYFYLKSLPLLIELIEQ”, the “soluble on expression in E. coli” value is reported as “not soluble”.
In the case of “VFGYVTEDGDTALHLAVIHQHEPFLDFLLGFSAGHEYLDLQNDLGQTALHLAAILGEASTVEKLYAAGAGVLVAERGGHTALHLACRVRAHTCACVLLQPRPSHPRDASDTYLTQSQDCTPDTSHAPAAVDSQPNPENEEEPRDEDWRLQLEAENYDGHTPLHVAVIHKDAEMVRLLRDAGADLNKPEPTCGRTPLHLAVEAQAASVLELLLKAGADPTARMYGGRTPLGSALLRPNPILARLLRAHGAPEPEDGGDKLSPCEEEGEDEDSDNRDEGDEYDD”, the “soluble on expression in E. coli” value is reported as “soluble”.
In the case of “MSLIQEYVPGKQVTLAHIIASPNKEIYTKLGLPEGTSNALGILTITPSEAAIIAVDIATKSGDIQIGFIDRFSGSVVISGDVSSVEAALQAVIEGLQQILNFSVTCKITRTEGGSHHHHHH”, the “soluble on expression in E. coli” value is reported as “soluble”.

Reference: the DeepSol protein solubility set
